# From publication PMC11039692, “SRY-Box transcription factor 9 triggers YAP nuclear entry via direct interaction in tumors” (Signal Transduction and Targeted Therapy, 2024)
# B1: SOX9-HMG domain (aa 98–181) (domain or fragment)
# chain: not shown
# notes: SOX9 HMG domain, residues 98-181; The limits 98-181 are printed for the MST with YAP protein; source: Escherichia coli, purified
# What was measured:
# [1] = biological target: T1, His-tagged YAP purified from Escherichia coli (human, UniProt P46937 1-504); assay: MST; His-tagged YAP labelled with 25 nM RED-tris-NTA 2nd Generation dye, SOX9 peptide serially diluted; 50 mM Tris-HCl pH 7.4, 150 mM NaCl, 0.05% Tween-20; room temperature; 40% LED power, medium MST power; details: both partners purified
# T1 construct: YAP, recombinant; Labelled with RED-tris-NTA 2nd Generation dye where it was the labelled partner; also called YAP protein; source: Escherichia coli, purified
# T1 sequence (P46937 whole entry): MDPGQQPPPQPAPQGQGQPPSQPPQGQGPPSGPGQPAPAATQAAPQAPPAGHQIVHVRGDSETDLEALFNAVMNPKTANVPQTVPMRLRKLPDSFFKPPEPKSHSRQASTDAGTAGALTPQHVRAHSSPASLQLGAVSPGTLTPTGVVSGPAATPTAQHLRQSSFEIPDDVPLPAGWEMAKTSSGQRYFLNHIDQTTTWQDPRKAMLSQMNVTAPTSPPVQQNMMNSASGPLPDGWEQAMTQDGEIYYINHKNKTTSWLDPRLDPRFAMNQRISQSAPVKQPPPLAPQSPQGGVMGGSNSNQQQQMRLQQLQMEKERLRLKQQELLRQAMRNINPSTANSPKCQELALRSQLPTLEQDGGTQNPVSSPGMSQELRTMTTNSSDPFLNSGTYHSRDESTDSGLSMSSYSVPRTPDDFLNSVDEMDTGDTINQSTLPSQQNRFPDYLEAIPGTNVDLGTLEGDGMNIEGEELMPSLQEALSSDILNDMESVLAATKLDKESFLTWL
# [2] = biological target: T1, His-tagged YAP purified from …; assay: MST; SOX9-HMG (aa 98–181) with YAP protein; which of the two was labelled is not told; 50 mM Tris-HCl pH 7.4, 150 mM NaCl, 0.05% Tween-20; room temperature; details: both partners purified
Binder,Kd [1],Kd [2]
"RVNGSSKNKPHVKRPMNAFMVWAQAARRKLADQ (peptide, UniProt P48436 94-126, looked up) [nNLS-containing fragment of SOX9 (aa 94–126)]",1100 nM,
"AFMVWAQAARRKLADQ (peptide, UniProt P48436 111-126, looked up) [peptide S-A1 (SOX9 amino acids 111–126)]",2200 nM,
B1,,540 nM
